Where no end group is shown, it is not given here. [ ]: non-standard residue; d: D form.
T1: human VPAC1 receptor (human, UniProt P32241 31-457)
T1 sequence (looked up): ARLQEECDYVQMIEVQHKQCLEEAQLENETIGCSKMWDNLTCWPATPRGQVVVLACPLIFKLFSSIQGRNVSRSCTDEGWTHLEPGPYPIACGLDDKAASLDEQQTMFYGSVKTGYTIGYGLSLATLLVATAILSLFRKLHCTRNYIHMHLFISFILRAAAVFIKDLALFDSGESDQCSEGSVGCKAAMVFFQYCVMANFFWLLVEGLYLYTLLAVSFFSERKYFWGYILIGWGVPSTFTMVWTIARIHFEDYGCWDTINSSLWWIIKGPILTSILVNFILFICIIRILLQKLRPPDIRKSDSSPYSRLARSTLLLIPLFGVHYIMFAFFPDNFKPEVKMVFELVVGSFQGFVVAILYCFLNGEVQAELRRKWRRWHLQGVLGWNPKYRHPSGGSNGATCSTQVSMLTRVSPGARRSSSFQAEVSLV

T2: human VPAC2 receptor (human, UniProt P41587 24-438)
T2 sequence (looked up): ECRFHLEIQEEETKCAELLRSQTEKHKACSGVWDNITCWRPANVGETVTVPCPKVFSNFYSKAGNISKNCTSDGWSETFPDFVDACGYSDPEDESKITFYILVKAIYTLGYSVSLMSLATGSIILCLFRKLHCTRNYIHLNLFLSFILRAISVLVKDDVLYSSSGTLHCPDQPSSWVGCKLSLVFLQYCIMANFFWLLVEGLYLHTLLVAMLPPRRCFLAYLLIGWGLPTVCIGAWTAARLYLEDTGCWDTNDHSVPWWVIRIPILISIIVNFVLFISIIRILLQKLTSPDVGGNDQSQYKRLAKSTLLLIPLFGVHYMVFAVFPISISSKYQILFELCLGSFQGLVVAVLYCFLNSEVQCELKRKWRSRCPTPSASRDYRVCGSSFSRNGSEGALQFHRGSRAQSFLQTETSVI

T3: human PAC1 receptor (human, UniProt P41586 21-468)
T3 sequence (looked up): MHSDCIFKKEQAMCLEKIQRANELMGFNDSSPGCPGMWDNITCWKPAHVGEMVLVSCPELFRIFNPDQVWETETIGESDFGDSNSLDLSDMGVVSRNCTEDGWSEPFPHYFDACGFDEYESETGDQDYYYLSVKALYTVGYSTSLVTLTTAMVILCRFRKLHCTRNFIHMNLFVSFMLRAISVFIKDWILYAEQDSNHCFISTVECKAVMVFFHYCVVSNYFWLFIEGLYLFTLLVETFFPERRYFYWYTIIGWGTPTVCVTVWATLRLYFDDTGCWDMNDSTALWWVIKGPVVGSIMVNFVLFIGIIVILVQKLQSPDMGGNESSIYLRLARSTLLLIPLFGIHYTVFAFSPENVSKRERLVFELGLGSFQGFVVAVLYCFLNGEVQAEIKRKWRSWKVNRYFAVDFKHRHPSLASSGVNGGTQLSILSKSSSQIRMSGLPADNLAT


Experiments:
Assay in all cases: cell-based or functional assay
[1] = molecular target: T1, human VPAC1 receptor
[2] = molecular target: T2, human VPAC2 receptor
[3] = molecular target: T3, human PAC1 receptor

| Binder | EC50 cAMP, DiscoveRx [1] | EC50 cAMP, DiscoveRx [2] | EC50 cAMP, DiscoveRx [3] | EC50 cAMP, Alpha Screen [2] |
| --- | --- | --- | --- | --- |
| HSDAVFTDNYTRLRKQVAAIKYLQSIKNKRYGGPSSGAPPPS (not fully specified) [P19] | 2.9 nM | 9.03 nM |  |  |
| HSDIVFTDNYTRLRKQVAAKKYLQSIKNKRYGGPSSGAPPPS (not fully specified) [P50] | 111 nM | 19.2 nM |  |  |
| HSDAVFTDNYTRLRKQVAASKYLQSIKNKRYGGPSSGAPPPS [P21] | 10.7 nM | 6.87 nM | > 100 nM | 11.6 nM |
| HSDAVFTDNYTRLRKQVAAKKYLQSIKNRRYGGPSSGAPPPS [P25] | 2.7 nM | 3.02 nM | 137 nM |  |
| HSDAVFTDNYTRLRKQVAARKYLQSIKNKRYGGPSSGAPPPS [P20] | 2 nM | 2.13 nM | > 25 nM | 2.77 nM |
| HSDAVFTDNYTRLRRQVAAKKYLQSIKNKRYGGPSSGAPPPS [P72] | 0.3 nM | 1.79 nM | 35.3 nM |  |
| H[dA]DAVFTDNYTRLRKQVAAKKYLQSIKNKRYGGPSSGAPPPS [P47] | 3.6 nM | 1.07 nM | 136 nM | 1.39 nM |
| HSDAVFTDNYTRLRRQVAARRYLQSIRNRRYGGPSSGAPPPS (not fully specified) [P71] | 0.2 nM | 3.14 nM | 14.6 nM |  |
| HSDAVFTDNYTRLRKQVAAKKYLQSIRNKRYGGPSSGAPPPS [P23] | 0.9 nM | 1.41 nM | 98.3 nM | 2.3 nM |

— US20080026996A1, “Selective Vpac2 Receptor Reptide Agonists” (ELI LILLY AND COMPANY, priority 2004, published 2008)
